Values of other authors in publication PMC4448168.

Biological target: α7 nAChR (UniProt P36544)
Chain of UniProt P36544 (P36544 23-502): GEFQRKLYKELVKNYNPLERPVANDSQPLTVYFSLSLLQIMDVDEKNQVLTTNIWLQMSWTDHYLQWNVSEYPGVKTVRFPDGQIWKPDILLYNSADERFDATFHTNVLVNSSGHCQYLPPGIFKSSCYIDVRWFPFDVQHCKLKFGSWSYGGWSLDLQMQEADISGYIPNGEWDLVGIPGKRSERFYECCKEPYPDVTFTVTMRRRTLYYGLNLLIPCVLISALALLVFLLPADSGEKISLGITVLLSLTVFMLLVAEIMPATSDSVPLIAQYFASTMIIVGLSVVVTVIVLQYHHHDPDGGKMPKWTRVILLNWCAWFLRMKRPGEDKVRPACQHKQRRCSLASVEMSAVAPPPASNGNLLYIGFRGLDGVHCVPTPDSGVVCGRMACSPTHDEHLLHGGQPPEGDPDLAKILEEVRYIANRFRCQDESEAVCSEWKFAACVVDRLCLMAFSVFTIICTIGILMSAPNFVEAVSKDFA

Substance: α-elapitoxin-Aa2a (from UniProt P86522)
- Ki: 214 µM
